Reference: patent publication US20200171068A1, “COMPOSITIONS COMPRISING APTAMERS AND NUCLEIC ACID PAYLOADS AND METHODS OF USING THE SAME” (Children's National Medical Center, priority 2017, published 2020)
“Also recorded” adds a separate entry of the source.

Test system: MDA-MB-231 cell line
Assay: Aptamer binding assay to MDA-MB-231 cells by flow cytometry
Set-up: species or system human
Details: biotin-conjugated aptamer
Method: DNA sequences for anti-human KIT aptamer (21) and mouse c-Kit aptamers (22) conjugated with biotin at 3′ were functionalized by short denaturation-renaturation step (95° C. 10 min, 5 min snap-cooling on ice). These DNA sequences were 5′-[…] […]-3′ (SEQ ID NO: 2) for human KIT, 5′-[…]-3′ (SEQ ID NO:3) for mouse c-Kit. These activated aptamers were used for binding assay to the cell lines by flow cytometry. For chimera preparation, human KIT-aptamer or mouse c-Kit-aptamer miR-26a chimera was assembled by three compartments of DNA/RNA hybrid sequences. The sequences were 5′-[…] […]/C3 (SEQ ID NO:4) spacer/CCUAUUCUGG-3′(SEQ ID NO:5) for human KIT aptamer+the part of passenger sequence for miR-26a-5p, 5′-[…]/C3 (SEQ ID NO:6) spacer/CCUAUUCUGG-3′ (SEQ ID NO:7) for mouse cKit aptamer+the part of passenger sequence for miR-26a-5p, 5′-GUUACUUGCACG/TEG (triethylene glycol)-Cholesterol-3′ (SEQ ID NO:8) for the part of sequence for miR-26a-5p+cholesterol, and 5′-[…]-3′ (SEQ ID NO:9) for guide sequence for miR-26a-5p (RNA sequences were represented as italic). The guide sequence for scramble control was […] (SEQ ID NO:10). To protect the oligonucleotide sequences from nuclease degradation, phosphorothioate bonds were introduced between the last 3 nucleotides at the 5′-end of DNA aptamers. The RNA sequences were modified with 2′-fluoro-uridines. […]

B1: human KIT aptamer: DNA aptamer against human KIT, SEQ ID NO:2, conjugated with biotin at 3′ for binding assay (nucleic acid)
DNA: GAGGCATACCAGCTTATTCAAGGGGCCGGGGCAAGGGGGGGGTACCGTGGTAGGACATAGTAAGTGCAATCTGCGAA
modifications: DNA, 3' {Biotin}, backbone not given here; further chemistry not fully specified
  binding to MDA-MB-231 cell line: confirmed the binding; also recorded: nearly identical distribution of KIT expression
